Experiment [1] has as its target T1, CLDN4-GFP, expressed in HEK293 T cells (UniProt O14493 1-209).
T1 construct: whole, on cells; also called Claudin4; HEK293 4; not shown: GFP fused to CLDN4
T1 sequence (looked up): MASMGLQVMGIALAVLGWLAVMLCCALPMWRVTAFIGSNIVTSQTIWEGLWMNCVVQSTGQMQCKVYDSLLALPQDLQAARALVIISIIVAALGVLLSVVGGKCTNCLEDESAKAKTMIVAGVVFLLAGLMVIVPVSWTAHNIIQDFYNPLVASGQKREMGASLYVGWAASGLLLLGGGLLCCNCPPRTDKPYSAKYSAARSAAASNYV
The experiment can be described thus: immunohistochemistry on FFPE engineered HEK293 cells.

Experiment [2] concerns the target T2, CLDN3-GFP, expressed in HEK293 T cells (UniProt O15551 1-220).
T2 construct: whole, on cells; also called Claudin3; HEK293 CLDN3; not shown: GFP fused to CLDN3
T2 sequence (looked up): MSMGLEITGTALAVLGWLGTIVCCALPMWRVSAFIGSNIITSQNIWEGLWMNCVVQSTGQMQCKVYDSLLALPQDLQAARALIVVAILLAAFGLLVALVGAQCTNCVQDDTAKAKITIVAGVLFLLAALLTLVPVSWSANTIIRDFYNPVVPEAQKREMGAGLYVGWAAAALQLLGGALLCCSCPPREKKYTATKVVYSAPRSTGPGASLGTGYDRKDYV
Described as above.

The target of experiment [3] is T3, CLDN9-GFP, expressed in HEK293 T cells (UniProt O95484 1-217).
T3 construct: whole, on cells; also called Claudin9; HEK293 9; not shown: GFP fused to CLDN9
T3 sequence (looked up): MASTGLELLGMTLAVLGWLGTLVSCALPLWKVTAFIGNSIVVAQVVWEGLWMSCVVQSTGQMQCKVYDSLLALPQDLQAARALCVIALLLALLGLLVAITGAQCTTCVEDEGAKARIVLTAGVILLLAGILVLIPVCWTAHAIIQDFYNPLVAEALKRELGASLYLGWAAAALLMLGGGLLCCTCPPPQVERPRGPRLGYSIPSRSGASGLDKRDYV
The description is as above.

Experiment [4] concerns the target T4, CLDN6 cytoplasmic domain peptide SHYMARYSTSAPAIS (SEQ ID NO: 99) (human).
T4 peptide: SHYMARYSTSAPAIS
The experiment can be described thus: peptide epitope mapping (FIG 2).

B1: Claudin-6 (CLDN6) antibody 3H11 (antibody, V domains shown)
VH: EIQLQQSGAELVRPGALVRLSCKPSGFNIKDYYIHWVKERPEQGLEWIGWIDPDNGDTLYDSKFQGKASLTADTSSNTAYLQLTSLTSEDTAVYYCATYRYSFAYWGQGTLVTVSA
VL: DIQMNQSPSSLSASLGDTITITCHASQNINVWLNWYQQKPGNIPKLLIFKASNLYTGVPSRFSGGGSGTGFTLTISSLQPEDIATYYCQQGQTYPLTFGGGTKLEIK
notes: Mouse hybridoma clone; Detection was with goat anti-mouse IgG; also called clone 3H11
For B1, the binding result in experiment [1], in experiment [2] and in experiment [3] was “no binding” throughout.

B2: Claudin-6 (CLDN6) antibody 3D07 (antibody, V domains shown)
VH: EVQLQQFGAELVKPGASVKISCRTSGYTFTDYNIDWVRQSHGKSLEWIGDINPNSENTDYNQKFKGKATLTVDKSSSTAYLELRSLTSEDTAVYYCARSPYGNYVGYLMDYWGQGTSVTVSS
VL: DVVLTQTPLSLPVNIGDQASISCRSTKSLLNSDGFTYLDWYLQKPGQSPQVLIYLISNRFSGVPDRFSGNGSGTDFTLKISRVEAEDLGVYYCFQSNYIPLTFGAGTKLELK
notes: Mouse hybridoma clone; Detection was with goat anti-mouse IgG; also called clone 3D07
Regarding B2, the binding result in experiment [4] is on record as “binds”; in experiment [1] it was “no binding”; in experiment [2], “no binding”; in experiment [3] it was “no binding”.

Values taken from EP4569003A2 (dated 2026).
